Results reported in patent publication US20210171621A1.

How the values were obtained:
[1] = target: human IL-5 protein (purchased from Beijing Yiqiao Shenzhou) (human) (UniProt P05113); test: cell-based or functional assay
[2] = target: IL-5 mutant 104L to Alanine, with His-tag (human) (UniProt P05113); test: capture ELISA: His-tagged IL-5 from HEK293E supernatant captured with murine anti-His antibody, detected with Goat-anti-Human-Fc-Specific-HRP; mean of four wells
[3] = target: IL-5 mutant 96F to Alanine, with His-tag (human) (UniProt P05113); test: as above
[4] = target: IL-5 mutant 86C to Alanine, with His-tag (human) (UniProt P05113); test: as above
[5] = target: human IL-5 protein (purchased from Beijing Yiqiao Shenzhou) (human) (UniProt P05113); test: SPR Biacore T200, antibody captured on Protein A/G, IL-5 as analyte

Nucala (Mepolizumab) (antibody), sequence (VH): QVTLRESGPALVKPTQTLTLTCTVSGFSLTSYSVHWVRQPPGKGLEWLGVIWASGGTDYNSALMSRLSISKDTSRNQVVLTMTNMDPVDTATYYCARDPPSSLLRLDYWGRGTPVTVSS
Nucala (Mepolizumab) (antibody), sequence (VL): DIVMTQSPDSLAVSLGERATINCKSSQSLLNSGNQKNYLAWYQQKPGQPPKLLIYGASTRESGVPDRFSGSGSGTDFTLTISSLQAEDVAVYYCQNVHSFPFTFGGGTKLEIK

Nucala (Mepolizumab) (antibody)
IC50 for inhibiting IL-5-induced TF-1 cell proliferation (Nucala) [1]: 0.0708 µg/mL | OD450 [2]: 0.109 | OD450 [3]: 0.19 | OD450 [4]: 0.0967 | Kd [5]: 0.201 nM
